Measured values published in the supplement of paper PMC11246515.
± gives the standard deviation of the averaged measurements.

Assay: total protein half-life in vivo (active degradation + dilution); higher = more stable protein
[1] = E. coli NCM3722 delta-clpP delta-lon delta-hslV, growth: N-lim chemostat, doubling time 6 h
[2] = E. coli NCM3722 delta-clpP, growth: N-lim chemostat, doubling time 6 h
[3] = E. coli NCM3722 delta-hslV, growth: N-lim chemostat, doubling time 6 h
[4] = E. coli NCM3722 delta-lon, growth: N-lim chemostat, doubling time 6 h
[5] = E. coli NCM3722 delta-smpB, growth: N-lim chemostat, doubling time 6 h
[6] = wild type E. coli NCM3722, growth: C-lim chemostat, doubling time 3 h
[7] = wild type E. coli NCM3722, growth: C-lim chemostat, doubling time 6 h
[8] = wild type E. coli NCM3722, growth: C-lim chemostat, doubling time 12 h
[9] = wild type E. coli NCM3722, growth: N-lim chemostat, doubling time 6 h
[10] = wild type E. coli NCM3722, growth: N-lim chemostat, doubling time 12 h
[11] = wild type E. coli NCM3722, growth: P-lim chemostat, doubling time 6 h
[12] = wild type E. coli NCM3722, growth: P-lim chemostat, doubling time 12 h

Sequence | total protein half-life in vivo [1] [h] | total protein half-life in vivo [2] [h] | total protein half-life in vivo [3] [h] | total protein half-life in vivo [4] [h] | total protein half-life in vivo [5] [h] | total protein half-life in vivo [6] [h] | total protein half-life in vivo [7] [h] | total protein half-life in vivo [8] [h] | total protein half-life in vivo [9] [h] | total protein half-life in vivo [10] [h] | total protein half-life in vivo [11] [h] | total protein half-life in vivo [12] [h]
MNFQQLKIIREAARQDYNLTEVANMLFTSQSGVSRHIRELEDELGIEIFVRRGKRLLGMTEPGKALLVIAERILNEASNVRRLADLFTNDTSGVLTIATTHTQARYSLPEVIKAFRELFPEVRLELIQGTPQEIATLLQNGEADIGIASERLSNDPQLVAFPWFRWHHSLLVPHDHPLTQISPLTLESIAKWPLITYRQGITGRSRIDDAFARKGLLADIVLSAQDSDVIKTYVALGLGIGLVAEQSSGEQEEENLIRLDTRHLFDANTVWLGLKRGQLQRNYVWRFLELCNAGLSVEDIKRQVMESSEEEIDYQI | 6.2 ± 1.1 | 2.47 ± 0.054 | 0.454 | 0.652 | 0.654 | 1.18 ± 0.11 | 1.156 ± 0.01 | 1.86 | 1.04 ± 0.049 | 1.02 | 2.33 ± 0.71 | 4.48 ± 0.47
MIWIMLATLAVVFVVGFRVLTSGARKAIRRLSDRLNIDVVPVESMVDQMGKSAGDEFLRYLHRPDESHLQNAAQVLLIWQIVIVDGSEQNLLQWHRILQKARLAAPITDAQVRLALGFLRETEPEMQDINAFQMRYNAFFQPAEGVHWLH [P0ADL3] | 5.96 ± 1.4 | 5.141 ± 0.016 | 4.75 | – | 4.7 ± 0.11 | 2.98 ± 0.21 | 5.07 ± 0.086 | 10.9 ± 2.9 | 4.71 | 10.8 | 4.65 ± 0.24 | 9.29 ± 1.7
MSIDFTPGIINTYHGDIYNCTTNTDNAKTPDTPKWPCDNWEEQQPINSTFSGEGYISDQYDLAQHQLQQINACHTNTTYTNADYSKVVAQLVSLITNIETISSTQLTQQTQSILNQINNIRYEKNKSAECRIIVIANPKPDKAIITKISVEEGIPITFSVQTMFSDTNFIAEQRADLPTNIKDIQSLYQKMTKLYIEHSENKNRMKVFAGTNFIDFNMTGQNLSGFVLTLSRFYFEDLLNINFTDANLGKVRISGEILLG | – | 5.86 | – | – | – | – | – | – | – | 8.68 | – | 14.6
MATHFARGILTEGHLISVRLPSQCHQEARNIPPHRQSRFLASRGLLAELMFMLYGIGELPEIVTLPKGKPVFSDKNLPSFSISYAGNMVGVALTTEGECGLDMELQRATRGFHSPHAPDNHTFSSNESLWISKQNDPNEARAQLITLRRSVLKLTGDVLNDDPRDLQLLPIAGRLKCAHVNHVEALCDAEDVLVWSVAVTPTIEKLSVWELDGKHGWKSLPDIHSRANNPTSRMMRFAQLSTVKAFSPN [P0ADM8] | – | 4.2 ± 0.51 | 3.24 ± 1.1 | 2.271 ± 0.01 | 2.5 ± 0.27 | – | 3.36 ± 0.66 | 6.92 ± 0.22 | 2.12 ± 0.18 | 3.63 ± 0.21 | 3.22 ± 0.14 | 5.24 ± 0.93
MKREEIADLMAFVVVAEERSFTRAAARLSMAQSALSQIVRRIEERLGLRLLTRTTRSVVPTEAGEHLLSVLGPMLHDIDSAMASLSDLQNRPSGTIRITTVEHAAKTILLPAMRTFLKSHPEIDIQLTIDYGLTDVVSERFDAGVRLGGEMDKDMIAIRIGPDIPMAIVGSPDYFSRRSVPTSVSQLIDHQAINLYLPTSGTANRWRLIRGGREVRVRMEGQLLLNTIDLIIDAAIDGHGLAYLPYDQVERAIKEKKLIRVLDKFTPDLPGYHLYYPHRRHAGSAFSLFIDRLKYKGAV | 5.34 ± 0.45 | – | > 8 | 6.34 | 6.01 ± 1.5 | 2.929 ± 0.019 | – | – | 5.238 ± 0.043 | 11.7 | 5.36 | 9.19 ± 3.4
MSFATISVIGLGYIGLPTAAAFASRQKQVIGVDINQHAVDTINRGEIHIVEPDLASVVKTAVEGGFLRASTTPVEADAWLIAVPTPFKGDHEPDMTYVESAARSIAPVLKKGALVILESTSPVGSTEKMAEWLAEMRPDLTFPQQVGEQADVNIAYCPERVLPGQVMVELIKNDRVIGGMTPVCSARASELYKIFLEGECVVTNSRTAEMCKLTENSFRDVNIAFANELSLICADQGINVWELIRLANRHPRVNILQPGPGVGGHCIAVDPWFIVAQNPQQARLIRTAREVNDHKPFWVIDQVKAAVADCLAATDKRASELKIACFGLAFKPNIDDLRESPAMEIAELIAQWHSGETLVVEPNIHQLPKKLTGLCTLAQLDEALATADVLVMLVDHSQFKVINGDNVHQQYVVDAKGVWR | 5.3 ± 0.14 | – | 5.1 ± 0.76 | 4.6415 ± 0.0014 | 4.11 ± 0.081 | 2.91 ± 0.71 | 7.21 ± 1.1 | 9.93 ± 3 | 5 ± 0.43 | 8.104 ± 0.048 | 5.77 ± 0.07 | 12.5 ± 1.5
MSHWATFKQTATNLWVTLRHDILALAVFLNGLLIFKTIYGMSVNLLDIFHIKAFSELDLSLLANAPLFMLGVFLVLNSIGLLFRAKLAWAISIILLLIALIYTLHFYPWLKFSIGFCIFTLVFLLILRKDFSHSSAAAGTIFAFISFTTLLFYSTYGALYLSEGFNPRIESLMTAFYFSIETMSTVGYGDIVPVSESARLFTISVIISGITVFATSMTSIFGPLIRGGFNKLVKGNNHTMHRKDHFIVCGHSILAINTILQLNQRGQNVTVISNLPEDDIKQLEQRLGDNADVIPGDSNDSSVLKKAGIDRCRAILALSDNDADNAFVVLSAKDMSSDVKTVLAVSDSKNLNKIKMVHPDIILSPQLFGSEILARVLNGEEINNDMLVSMLLNSGHGIFSDNDELETKADSKESAQK | 5.54 ± 0.5 | 5.47 | – | 5.25 ± 0.22 | 4.7 ± 0.18 | 2.43 ± 0.039 | 4.78 ± 0.82 | 7.86 | 4.54 ± 0.47 | 9.01 ± 0.45 | – | 9.87 ± 0.24
MIETLLEVRNLSKTFRYRTGWFRRQTVEAVKPLSFTLREGQTLAIIGENGSGKSTLAKMLAGMIEPTSGELLIDDHPLHFGDYSFRSQRIRMIFQDPSTSLNPRQRISQILDFPLRLNTDLEPEQRRKQIIETMRMVGLLPDHVSYYPHMLAPGQKQRLGLARALILRPKVIIADEALASLDMSMRSQLINLMLELQEKQGISYIYVTQHIGMMKHISDQVLVMHQGEVVERGSTADVLASPLHELTKRLIAGHFGEALTADAWRKDR [P0AAH8] | 5.82 ± 0.14 | 5.86 ± 0.16 | 5.99 ± 0.16 | 5.26 ± 1.3 | 5.78 ± 0.3 | 2.97 ± 0.16 | 5.78 ± 0.22 | 11.5 ± 2.9 | 5.53 ± 0.077 | 12.1 ± 1.1 | 6.03 ± 0.55 | 12.51 ± 0.086
MQSLHGNCLIAYARHKYILTMVNGEYRYFNGGDLVFADASQIRVDKCVENFVFVSRDTLSLFLPMLKEEALNLHAHKKVSSLLVHHCSRDIPVFQEVAQLSQNKNLRYAEMLRKRALIFALLSVFLEDEHFIPLLLNVLQPNMRTRVCTVINNNIAHEWTLARIASELLMSPSLLKKKLREEETSYSQLLTECRMQRALQLIVIHGFSIKRVAVSCGYHSVSYFIYVFRNYYGMTPTEYQERSAQRLSNRDSAASIVAQGNFYGTDRSAEGIRL | 6.49 ± 1 | 1.14 | – | – | – | – | – | – | – | – | – | –
MLNYVIKRLLGLIPTLFIVSVLVFLFVHMLPGDPARLIAGPEADAQVIELVRQQLGLDQPLYHQFWHYISNAVQGDFGLSMVSRRPVADEIASRFMPTLWLTITSMVWAVIFGMAAGIIAAVWRNRWPDRLSMTIAVSGISFPAFALGMLLIQVFSVELGWLPTVGADSWQHYILPSLTLGAAVAAVMARFTRASFVDVLSEDYMRTARAKGVSETWVVLKHGLRNAMIPVVTMMGLQFGFLLGGSIVVEKVFNWPGLGRLLVDSVEMRDYPVIQAEILLFSLEFILINLVVDVLYAAINPAIRYK | 6.23 ± 0.21 | 5.94 ± 1 | 6.89 ± 0.77 | 6.12 ± 1.5 | 5.48 ± 0.069 | 3.13 ± 0.44 | 6.58 ± 0.59 | 11.4 ± 1.1 | 5.84 ± 0.41 | 11.1 ± 0.85 | 5.68 | 12.6 ± 1.1
MMKTVNELIKDINSLTSHLHEKDFLLTWEQTPDELKQVLDVAAALKALRAENISTKVFNSGLGISVFRDNSTRTRFSYASALNLLGLAQQDLDEGKSQIAHGETVRETANMISFCADAIGIRDDMYLGAGNAYMREVGAALDDGYKQGVLPQRPALVNLQCDIDHPTQSMADLAWLREHFGSLENLKGKKIAMTWAYSPSYGKPLSVPQGIIGLMTRFGMDVTLAHPEGYDLIPDVVEVAKNNAKASGGSFRQVTSMEEAFKDADIVYPKSWAPYKVMEERTELLRANDHEGLKALEKQCLAQNAQHKDWHCTEEMMELTRDGEALYMHCLPADISGVSCKEGEVTEGVFEKYRIATYKEASWKPYIIAAMILSRKYAKPGALLEQLLKEAQERVK | 4.89 ± 0.5 | 2.63 | 2.5 ± 0.084 | 3.03 | 2.82 ± 0.23 | 2.94 ± 0.24 | 4.89 ± 0.37 | 9.18 ± 0.49 | 2.53 | 3.87 ± 0.06 | – | –
MASKFQNRLVGTIVLVALGVIVLPGLLDGQKKHYQDEFAAIPLVPKAGDRDEPDMMPAATQALPTQPPEGAAEEVRAGDAAAPSLDPATIAANNTEFEPEPAPVAPPKPKPVEPPKPKVEAPPAPKPEPKPVVEEKAAPTGKAYVVQLGALKNADKVNEIVGKLRGAGYRVYTSPSTPVQGKITRILVGPDASKDKLKGSLGELKQLSGLSGVVMGYTPN | 4.2 ± 0.25 | 5.15 ± 2.6 | 3.72 ± 0.18 | 3.63 ± 0.44 | 3.52 ± 0.13 | 2.45 ± 0.036 | 3.46 ± 0.32 | 6.92 ± 0.23 | 3.32 ± 0.14 | 5.77 ± 1.7 | 2.83 ± 0.55 | 5.38 ± 0.026
